# Data as given in IntAct's records for PubMed 21505417.
# B1: Intraflagellar transport protein 25 (Chlamydomonas reinhardtii), B8LIX8 (parent)
# chain: MKDYAREENGGLVVMASCSDERFPPENMLDGKDNTFWVTTGMFPQEFVLRLESCIRVSKITTLSLNVRKLAVEKCDQDKPDQFEKVFEVELANRGDRLQTEVHQVNIRAKYLKFILLQGHGEFATVNRVSVVGGDDDGGGYDEPGGGYGSMQRQPSMGYGGGGGSAATGFAADPGNAAAGGGGGFEDEF
# partner: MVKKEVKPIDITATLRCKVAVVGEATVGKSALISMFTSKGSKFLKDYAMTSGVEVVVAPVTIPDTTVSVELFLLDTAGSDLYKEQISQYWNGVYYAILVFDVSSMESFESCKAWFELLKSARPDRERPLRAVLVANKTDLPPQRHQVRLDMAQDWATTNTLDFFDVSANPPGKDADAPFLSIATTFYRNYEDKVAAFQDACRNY
# Variants of: B1
# Details: with ift27_chlre IFT27, A8HN58
row,Variant,effect of a mutation on the interaction
1,V38R,disrupting interaction
2,T40R,disrupting interaction
3,T125E,disrupting interaction
